Reference: patent US20200199241A1 (Chugai, published 2020)

target: T1, soluble human FcRn complexed with β2-microglobulin (human, UniProt P61769 21-119, limits assumed); assay: Biacore SPR, pH 7.0;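 note: test antibodies captured on a Protein L chip with human FcRn flowed over as analyte, KD obtained as the ratio of dissociation to association rate constants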
T1 construct: also called hFcRn

Binder	Kd [nM]
IgG1-F893 (antibody, EU numbering; copies: 2 + 2) heavy: QVQLQESGPGLVKPSETLSLTCAVSGHSISHDHAWSWVRQPPGEGLEWIGFISYSGITNYNPSLQGRVTISRDNSKNTLYLQMNSLRAEDTAVYYCARSLARTTAMDYWGEGTLVTVSSASTKGPSVFPLAPSSKSTSGGTAALGCLVKDYFPEPVTVSWNSGALTSGVHTFPAVLQSSGLYSLSSVVTVPSSSLGTQTYICNVNHKPSNTKVDKKVEPKSCDKTHTCPPCPAPELKGGPKVFLFPPKPKDTLYISRTPEVTCVVVDVSHEDPEVKFNWYVDGVEVHNAKTKPREEQYNSTYRVVSVLTVLHQDWLNGKEYKCKVSNKALPAPIEKTISKAKGQPREPQVYTLPPSRDELTKNQVSLTCLVKGFYPSDIAVEWESNGQPENNYKTTPPVLDSDGSFFLYSKLTVDKSRWQQGNVFSCSVMHEALHYHITQKSLSLSP light: not shown	98
IgG1-F898 (antibody, EU numbering; also called E898; copies: 2 + 2) heavy: QVQLQESGPGLVKPSETLSLTCAVSGHSISHDHAWSWVRQPPGEGLEWIGFISYSGITNYNPSLQGRVTISRDNSKNTLYLQMNSLRAEDTAVYYCARSLARTTAMDYWGEGTLVTVSSASTKGPSVFPLAPSSKSTSGGTAALGCLVKDYFPEPVTVSWNSGALTSGVHTFPAVLQSSGLYSLSSVVTVPSSSLGTQTYICNVNHKPSNTKVDKKVEPKSCDKTHTCPPCPAPELLGGPSVFLFPPKPKDTLYISRTPEVTCVVVDVSHEDPEVKFNWYVDGVEVHNAKTKPREEQYNSTYRVVSVLTVLHQDWLEGKEYKCKVSNKALPAPIEKTISKAKGQPREPQVYTLPPSRDELTKNQVSLTCLVKGFYPSDIAVEWESAGQPEANYKTTPPVLDSDGSFFLYSKLTVDKSRWQQGNVFSCSVMHEALHYHYTQKSLSLSP light: not shown	170
IgG1-F894 (antibody, EU numbering; copies: 2 + 2) heavy: QVQLQESGPGLVKPSETLSLTCAVSGHSISHDHAWSWVRQPPGEGLEWIGFISYSGITNYNPSLQGRVTISRDNSKNTLYLQMNSLRAEDTAVYYCARSLARTTAMDYWGEGTLVTVSSASTKGPSVFPLAPSSKSTSGGTAALGCLVKDYFPEPVTVSWNSGALTSGVHTFPAVLQSSGLYSLSSVVTVPSSSLGTQTYICNVNHKPSNTKVDKKVEPKSCDKTHTCPPCPAPELRGGPKVFLFPPKPKDTLYISRTPEVTCVVVDVSHEDPEVKFNWYVDGVEVHNAKTKPREEQYNSTYRVVSVLTVLHQDWLNGKEYKCKVSNKALPAPIEKTISKAKGQPREPQVYTLPPSRDELTKNQVSLTCLVKGFYPSDIAVEWESNGQPENNYKTTPPVLDSDGSFFLYSKLTVDKSRWQQGNVFSCSVMHEALHYHITQKSLSLSP light: not shown	92
IgG1-F897 (antibody, EU numbering; copies: 2 + 2) heavy: QVQLQESGPGLVKPSETLSLTCAVSGHSISHDHAWSWVRQPPGEGLEWIGFISYSGITNYNPSLQGRVTISRDNSKNTLYLQMNSLRAEDTAVYYCARSLARTTAMDYWGEGTLVTVSSASTKGPSVFPLAPSSKSTSGGTAALGCLVKDYFPEPVTVSWNSGALTSGVHTFPAVLQSSGLYSLSSVVTVPSSSLGTQTYICNVNHKPSNTKVDKKVEPKSCDKTHTCPPCPAPELLGGPSVFLFPPKPKDTLYISRTPEVTCVVVDVSHEDPEVKFNWYVDGVEVHNAKTKPREEQYNSTYRVVSVLTVLHQDWLDGKEYKCKVSNKALPAPIEKTISKAKGQPREPQVYTLPPSRDELTKNQVSLTCLVKGFYPSDIAVEWESAGQPEANYKTTPPVLDSDGSFFLYSKLTVDKSRWQQGNVFSCSVMHEALHYHYTQKSLSLSP light: not shown	97
IgG1-F896 (antibody, EU numbering; copies: 2 + 2) heavy: QVQLQESGPGLVKPSETLSLTCAVSGHSISHDHAWSWVRQPPGEGLEWIGFISYSGITNYNPSLQGRVTISRDNSKNTLYLQMNSLRAEDTAVYYCARSLARTTAMDYWGEGTLVTVSSASTKGPSVFPLAPSSKSTSGGTAALGCLVKDYFPEPVTVSWNSGALTSGVHTFPAVLQSSGLYSLSSVVTVPSSSLGTQTYICNVNHKPSNTKVDKKVEPKSCDKTHTCPPCPAPELRGGPKVFLFPPKPKDTLYISRTPEVTCVVVDVSHEDPEVKFNWYVDGVEVHEAKTKPREEQYNSTYRVVSVLQVLHADWLEGKEYKCKVSNKALPAPIEKTISKAKGQPREPQVYTLPPSRDELTKNQVSLTCLVKGFYPSDIAVEWESNGQPENNYKTTPPVLDSDGSFFLYSKLTVDKSRWQQGNVFSCSVMHEALHYHYTQKSLSLSP light: not shown	20
IgG1-F895 (antibody, EU numbering; copies: 2 + 2) heavy: QVQLQESGPGLVKPSETLSLTCAVSGHSISHDHAWSWVRQPPGEGLEWIGFISYSGITNYNPSLQGRVTISRDNSKNTLYLQMNSLRAEDTAVYYCARSLARTTAMDYWGEGTLVTVSSASTKGPSVFPLAPSSKSTSGGTAALGCLVKDYFPEPVTVSWNSGALTSGVHTFPAVLQSSGLYSLSSVVTVPSSSLGTQTYICNVNHKPSNTKVDKKVEPKSCDKTHTCPPCPAPELKGGPKVFLFPPKPKDTLYISRTPEVTCVVVDVSHEDPEVKFNWYVDGVEVHEAKTKPREEQYNSTYRVVSVLQVLHADWLEGKEYKCKVSNKALPAPIEKTISKAKGQPREPQVYTLPPSRDELTKNQVSLTCLVKGFYPSDIAVEWESNGQPENNYKTTPPVLDSDGSFFLYSKLTVDKSRWQQGNVFSCSVMHEALHYHYTQKSLSLSP light: not shown	21

Other lines, results leading:

Kd [nM]	Binder
100	IgG1-F904 (antibody, EU numbering; copies: 2 + 2) heavy: QVQLQESGPGLVKPSETLSLTCAVSGHSISHDHAWSWVRQPPGEGLEWIGFISYSGITNYNPSLQGRVTISRDNSKNTLYLQMNSLRAEDTAVYYCARSLARTTAMDYWGEGTLVTVSSASTKGPSVFPLAPSSKSTSGGTAALGCLVKDYFPEPVTVSWNSGALTSGVHTFPAVLQSSGLYSLSSVVTVPSSSLGTQTYICNVNHKPSNTKVDKKVEPKSCDKTHTCPPCPAPELLGGPSVFLFPPKPKDTLYISRTPEVTCVVVDVSHEDPEVKFNWYVDGVEVHNAKTKPREEQYNSTYRVVSVLTVLHQDWLDIKEYKCKVSNKALPAPIEKTISKAKGQPREPQVYTLPPSRDELTKNQVSLTCLVKGFYPSDIAVEWESNGQPENNYKTTPPVLDSDGSFFLYSKLTVDKSRWQQGNVFSCSVMHEALHYHYTQKSLSLSP light: not shown
230	IgG1-F903 (antibody, EU numbering; copies: 2 + 2) heavy: QVQLQESGPGLVKPSETLSLTCAVSGHSISHDHAWSWVRQPPGEGLEWIGFISYSGITNYNPSLQGRVTISRDNSKNTLYLQMNSLRAEDTAVYYCARSLARTTAMDYWGEGTLVTVSSASTKGPSVFPLAPSSKSTSGGTAALGCLVKDYFPEPVTVSWNSGALTSGVHTFPAVLQSSGLYSLSSVVTVPSSSLGTQTYICNVNHKPSNTKVDKKVEPKSCDKTHTCPPCPAPELLGGPSVFLFPPKPKDTLYISRTPEVTCVVVDVSHEDPEVKFNWYVDGVEVHNAKTKPREEQYNSTYRVVSVLTVLHQDWLDHKEYKCKVSNKALPAPIEKTISKAKGQPREPQVYTLPPSRDELTKNQVSLTCLVKGFYPSDIAVEWESNGQPENNYKTTPPVLDSDGSFFLYSKLTVDKSRWQQGNVFSCSVMHEALHYHYTQKSLSLSP light: not shown
220	IgG1-F902 (antibody, EU numbering; copies: 2 + 2) heavy: QVQLQESGPGLVKPSETLSLTCAVSGHSISHDHAWSWVRQPPGEGLEWIGFISYSGITNYNPSLQGRVTISRDNSKNTLYLQMNSLRAEDTAVYYCARSLARTTAMDYWGEGTLVTVSSASTKGPSVFPLAPSSKSTSGGTAALGCLVKDYFPEPVTVSWNSGALTSGVHTFPAVLQSSGLYSLSSVVTVPSSSLGTQTYICNVNHKPSNTKVDKKVEPKSCDKTHTCPPCPAPELLGGPSVFLFPPKPKDTLYISRTPEVTCVVVDVSHEDPEVKFNWYVDGVEVHNAKTKPREEQYNSTYRVVSVLTVLHQDWLDFKEYKCKVSNKALPAPIEKTISKAKGQPREPQVYTLPPSRDELTKNQVSLTCLVKGFYPSDIAVEWESNGQPENNYKTTPPVLDSDGSFFLYSKLTVDKSRWQQGNVFSCSVMHEALHYHYTQKSLSLSP light: not shown
110	IgG1-F899 (antibody, EU numbering; copies: 2 + 2) heavy: QVQLQESGPGLVKPSETLSLTCAVSGHSISHDHAWSWVRQPPGEGLEWIGFISYSGITNYNPSLQGRVTISRDNSKNTLYLQMNSLRAEDTAVYYCARSLARTTAMDYWGEGTLVTVSSASTKGPSVFPLAPSSKSTSGGTAALGCLVKDYFPEPVTVSWNSGALTSGVHTFPAVLQSSGLYSLSSVVTVPSSSLGTQTYICNVNHKPSNTKVDKKVEPKSCDKTHTCPPCPAPELLGGPSVFLFPPKPKDTLYISRTPEVTCVVVDVSHEDPEVKFNWYVDGVEVHNAKTKPREEQYNSTYRVVSVLTVLHQDWLDAKEYKCKVSNKALPAPIEKTISKAKGQPREPQVYTLPPSRDELTKNQVSLTCLVKGFYPSDIAVEWESNGQPENNYKTTPPVLDSDGSFFLYSKLTVDKSRWQQGNVFSCSVMHEALHYHYTQKSLSLSP light: not shown
130	IgG1-F901 (antibody, EU numbering; copies: 2 + 2) heavy: QVQLQESGPGLVKPSETLSLTCAVSGHSISHDHAWSWVRQPPGEGLEWIGFISYSGITNYNPSLQGRVTISRDNSKNTLYLQMNSLRAEDTAVYYCARSLARTTAMDYWGEGTLVTVSSASTKGPSVFPLAPSSKSTSGGTAALGCLVKDYFPEPVTVSWNSGALTSGVHTFPAVLQSSGLYSLSSVVTVPSSSLGTQTYICNVNHKPSNTKVDKKVEPKSCDKTHTCPPCPAPELLGGPSVFLFPPKPKDTLYISRTPEVTCVVVDVSHEDPEVKFNWYVDGVEVHNAKTKPREEQYNSTYRVVSVLTVLHQDWLDEKEYKCKVSNKALPAPIEKTISKAKGQPREPQVYTLPPSRDELTKNQVSLTCLVKGFYPSDIAVEWESNGQPENNYKTTPPVLDSDGSFFLYSKLTVDKSRWQQGNVFSCSVMHEALHYHYTQKSLSLSP light: not shown
170	IgG1-F900 (antibody, EU numbering; copies: 2 + 2) heavy: QVQLQESGPGLVKPSETLSLTCAVSGHSISHDHAWSWVRQPPGEGLEWIGFISYSGITNYNPSLQGRVTISRDNSKNTLYLQMNSLRAEDTAVYYCARSLARTTAMDYWGEGTLVTVSSASTKGPSVFPLAPSSKSTSGGTAALGCLVKDYFPEPVTVSWNSGALTSGVHTFPAVLQSSGLYSLSSVVTVPSSSLGTQTYICNVNHKPSNTKVDKKVEPKSCDKTHTCPPCPAPELLGGPSVFLFPPKPKDTLYISRTPEVTCVVVDVSHEDPEVKFNWYVDGVEVHNAKTKPREEQYNSTYRVVSVLTVLHQDWLDDKEYKCKVSNKALPAPIEKTISKAKGQPREPQVYTLPPSRDELTKNQVSLTCLVKGFYPSDIAVEWESNGQPENNYKTTPPVLDSDGSFFLYSKLTVDKSRWQQGNVFSCSVMHEALHYHYTQKSLSLSP light: not shown
130	IgG1-F905 (antibody, EU numbering; copies: 2 + 2) heavy: QVQLQESGPGLVKPSETLSLTCAVSGHSISHDHAWSWVRQPPGEGLEWIGFISYSGITNYNPSLQGRVTISRDNSKNTLYLQMNSLRAEDTAVYYCARSLARTTAMDYWGEGTLVTVSSASTKGPSVFPLAPSSKSTSGGTAALGCLVKDYFPEPVTVSWNSGALTSGVHTFPAVLQSSGLYSLSSVVTVPSSSLGTQTYICNVNHKPSNTKVDKKVEPKSCDKTHTCPPCPAPELLGGPSVFLFPPKPKDTLYISRTPEVTCVVVDVSHEDPEVKFNWYVDGVEVHNAKTKPREEQYNSTYRVVSVLTVLHQDWLDKKEYKCKVSNKALPAPIEKTISKAKGQPREPQVYTLPPSRDELTKNQVSLTCLVKGFYPSDIAVEWESNGQPENNYKTTPPVLDSDGSFFLYSKLTVDKSRWQQGNVFSCSVMHEALHYHYTQKSLSLSP light: not shown
